The record followed here is the nanobody polyreactivity screen of Harvey et al. (2022).

The nature of this series: yeast display, Sf9 membrane polyspecificity reagent, FACS + sequencing; frameworks hold sequencing errors. Put shortly:
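Galactose induction of a Saccharomyces cerevisiae BJ5465 synthetic nanobody display library ran 36–48 hours. The cells were then stained for 1 hour at 4 °C with 10% biotinylated, detergent-solubilized Sf9 membrane reagent, pulled down on streptavidin microbeads and FACS-sorted into low and high (top ~1%) gates on expression and reagent-binding fluorescence. Labels for polyreactivity follow the gate of origin.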
For “QFQLVESGGGLVQAGGSLRLSCAASGFIFTNVMGWYRQSPGKERELVAAISGRGTSTYYADSVKGRFTISRDNAKNTVYLQMNSLKPEDTAVYYCAAYFTSRLDYWGQGTQVTVSS”, the “polyreactivity (PSR sort gate)” value is “high polyreactivity”. For “QFQLVESGGGLVQAGGSLRLSCAASGIISSVYAMGWYRQAPGKERELVAAISGSGGSTYYADSVKGRFTISRDNAKNTVYLQMNSLKPEDTAVYYCAKGYQYQGNSYGYWGQGTQVTVSS”, the “polyreactivity (PSR sort gate)” value is “low polyreactivity”. In the case of “QFQLVESGGGLVQAGGSLRLSCAASGITFDVNAMGCYIQAPGKERELVASITAGGNTYYSDSVKGRFTISRDNAKNTVYLQMNSLKPVDTAVYFCAAVSTSLYCAGYDYWGQGTQVTVSS” it was “low polyreactivity”; in that of “QFQLVESGGGLVQAGGSLRLSCAASGITFGDNAMGWYRQAPGKERELVAAISWSGDRTFYADSVKGRFTISRDNAKNTVYLQMNSLKPEDTAVYYCNAEIGWHNEGRLSTYDYWGQGTQVTVSS”, “low polyreactivity”. For the sequence “QFQLVESGGGLVQAGGSLRLSCAASGITFRAYAMGWYRQAPGKERELVAAITGRFGRTYYADSVKGRFTISRDNENNSVYLQMNSLKPEDTAVYYCNAYLWRVTQTYDYWGQGTQVTVSS”, the “polyreactivity (PSR sort gate)” value is listed as “high polyreactivity”. In the case of “QFQLVESGGGLVQAGGSLRLSCAASGLIFVYNDMGWYRQAPGKETELVAGITGTGGNTYYADSVKGRFTISRDNEKNTVYLQMNSLKPEDTAVYYCAASHTSYYLRYGYWGQGTQVTVSS” it was “high polyreactivity”; in that of “QFQLVESGGGLVQAGGSLRLSCAASGLTFYAYARGWYRQAPGKDSELVAAISSGGSTSYADSVKGRFTISRDNAKYTVYLQMNSLKPEDTAVYYCAARPISSRFFGWGYNYWGQGTQVTVSS”, “high polyreactivity”; in that of “QFQLVESGGGLVQAGGSLRLSCAASGRIFDVNAMGWSRQAPGKESELVAAISTRGGGTYYADSVKGRFTISRDNAKNTVYLQMTSLKPEDTAVYYCNVVRRYGGRGIDYWGQGTQVTVSS”, “low polyreactivity”. Consider “QFQLVESGGGLVQAGGSLRLSCAASGRIFGVYAMGWYRQAPVKERQLVATISLSAGRTYYADSVKGRFTISRDNAKNTVYLQMNSLKPEDTAVYYCAAQSNYSIRRHYYTFRYSYDYWGQGTQVTVSS”, for which the “polyreactivity (PSR sort gate)” value is given as “high polyreactivity”.

For the sequence “QFQLVESGGGLVQAGGSLRLSCAASGRIFSHYAMGCYRQAPGKERELVAAISSGGITYYADSVNGRFTISRDNAKNTVYLQRNSLKPEDTAVYYCAAVRRRGTTYDYWGQGTQVTVSS”, the “polyreactivity (PSR sort gate)” value was “high polyreactivity”. For the sequence “QFQLVESGGGLVQAGGSLRLSCAASGRILSGNAMGWYRQAPGKERELVAAITNAGITKYADSVKGRFTISRDNAKNTVYLQMNSLKPEDTAVYYCATDRYAYNLYDYWGQGTQVTVSS”, the “polyreactivity (PSR sort gate)” value is “low polyreactivity”.

Regarding “QFQLVESGGGLVQAGGSLRLSCAASGRTFSGNTMGWYRQAPGKERELVAAITGRGGSTYYADSVKGRFTISRDNAKNTVYLQMNCLKPEDTAVYYCAALRYTFAGRFDYWGQGTQVTVSS”, the “polyreactivity (PSR sort gate)” value is recorded as “high polyreactivity”. In the case of “QFQLVESGGGLVQAGGSLRLSCAASGRTFWNYAMGWYRQAPGKERELVAAISVTGTNTYYADSVKGRFTISRDNAKNTVYLQMNSLKPEDTAVYYCAARGRPGLYYWGQGTQVTVSS” it was “high polyreactivity”. Regarding “QFQLVESGGGLVQAGGSLRLSCAASGRTLHGYTMGWYRQAPGKVREFVATISSIGGSTYYADSVKGRFTISRDNAKNTVYLQMNSLKPEDTAVYYCNRGRARVIFSGMDYWGQGTQVTVSS”, the “polyreactivity (PSR sort gate)” value is “low polyreactivity”. In the case of “QFQLVESGGGLVQAGGSLRLSCAASGRTYRYTMGWSRHAPGKERELVAAISRSGGSTYYADSVKGRFTISRDNAKTTVYLQMNSLIPEDTAVYYCAKVIYRYNETYDYWGQGTQVTVSS”, the “polyreactivity (PSR sort gate)” value is “high polyreactivity”.

Regarding “QFQLVESGGGLVQAGGSLRLSCAASGSIFANALGWYRQAPRKERELVAAISFSGGRTFYADSVKGRFTISRDNAKNTVYLQMNSLKPDDTTVYYCNKDYWGYFSYWKSYLYDYWGQGTQVTVSS”, the “polyreactivity (PSR sort gate)” value is reported as “high polyreactivity”.

Consider “QFQLVESGGGLVQAGGSLRLSCAASGSIFDGNAMGWYRQAPGKERELVAAISRRGGSTYYADSVKGRFTISRYNAKNTVYLQMNSLKPEDTAVYYCNAYLSYFDGNYWGQGTQVTVSS”, for which the “polyreactivity (PSR sort gate)” value is reported as “high polyreactivity”. For the sequence “QFQLVESGGGLVQAGGSLRLSCAASGSIFELNAKGLYRTAPGKERELVAAITSSGSSTYYADSVKGRFTISRDNAKNTVYLQMNRLKPEDTAVYYCFRPHDYWGQGTQVTESS”, the “polyreactivity (PSR sort gate)” value is on record as “low polyreactivity”. With “QFQLVESGGGLVQAGGSLRLSCAASGSTFGVNAMGWYRQAPGKERELVAAISSSGSSTYADSVKGRFTISRDNAKNTVYLQMNSLKPEDTAVYYCNKTTLLTVEYDYWGQGTQVTVSS” the entry was “low polyreactivity”.

“QFQLVESGGGLVQAGGSLRLSCAASGSTFGVYAMGWYRQAPGKERELVATINSGGSTNYADSVKGLFTISRDNAKNTVYLQMNSLKPEDTAVYYCAAGPFWQDFYVYEYDYWGQGTQVTVSS”: the “polyreactivity (PSR sort gate)” value is recorded as “low polyreactivity”. For “QFQLVESGGGLVQAGGSLRLSCAASGSTFRRNTMGWYRQAPGKEREFVAAISRRGGSTYYADSVKGRFTISRDNAKNTVYLQMNRLKPEDTAVYYCAAPGLSRLYNVYYWPYDYWGQGTQVTVSS”, the “polyreactivity (PSR sort gate)” value is “high polyreactivity”. Regarding “QFQLVESGGGLVQAGGSLRLSCAASGSTFSANAMGWYRQAPGKERELVASISRRGGSTYYADSVKGRFTISRDIAKNTVYLQMNSLKPEDTAVYYCNKRFARQGSPSEYGRSQIGYYYWGQGTQVTVSS”, the “polyreactivity (PSR sort gate)” value is on record as “high polyreactivity”. In the case of “QFQLVESGGGLVQAGGSLRLSCAASGSTFTANAMGWYRQSPGKERELVAAITNSDGSTYYADSVKGRFTISRDNAKNTVYLQMNSLKPEDTAVYYCAKDYYACYWEMDYWGQGTQVTVSS”, the “polyreactivity (PSR sort gate)” value is “low polyreactivity”.

Turning to “QFQLVESGGGLVQAGGSLRLSCAASGSTFVYYAMGWYRQAPGKERELVAAITASGGGTYYADSVKGRFTISRDNAKNTVYLQMNSLKPEDTAVYYCAAYLGWGYDYWGQGTQVTVSS”, the “polyreactivity (PSR sort gate)” value is on record as “low polyreactivity”. In the case of “QFQLVESGGGLVQAGGSLRLSCAASGSTIIKNAMGWYRQAPGKERELVAAINWSVTRTYYADSVKGRFTISRDNAKNTVYLQMNSLKPEDTAVYYCAKVIARFVRYDYWGQGTQVTVSS” it was “high polyreactivity”. As to “QFQLVESGGGLVQAGGSLRLSCAASGSTYSYYAMGWYRQAPGKERELVAAISSRGGSTYYADSVKGRFTISRDNAMNTVYLQMNSLKPEDTAVYYCNADHQFRSSVSGDHDYWGQGTQVTVSS”, the “polyreactivity (PSR sort gate)” value was “high polyreactivity”. With “QFQLVESGGGLVQAGGSLRLSCAASGVSNALGWYRQAPGKERELVAAISRSGGSTYYADSVKGRFTISRANAKNTVNLQMNSLKPEDTAVYYCAVGYTYVYRYSSHKYDYWGEGTQVTVSS” the entry was “high polyreactivity”.

Turning to “QFQLVESGGGLVQAGGSLRLSCAASRFYTMGWSRQAPGKERELVAAISWSGGDTYYADSVKGRFTISRDNAKNTVYLQMTSLKPEDTAVYYCAKKTIGSYVHEPYYYWGHGTQVTVSS”, the “polyreactivity (PSR sort gate)” value is on record as “low polyreactivity”. In the case of “QFQLVESGGGLVQAGGSLRLSCADSGSIFSGYAMGRYRQEPGKDSELVASITRGGSTYYADSVKGRFTISLDNAKNNVYLQINSLKQEDTAVYYCARYGYKNRPLGMDYWGQGTQVTVSS” it was “low polyreactivity”; in that of “QFQLVESGGGLVQAGGSLRLSCASSGSIIGIYAMGWYRQAPGKERELVAAISWSGGSTYYADSVKGRFTISRDNAKNTVYLQMNSLKPEDTAVYYCAARGHYQYYWGQGTQVTVSS”, “high polyreactivity”.

Consider “QFQLVESGGGLVQAGGSLRLSSAASGSIFYTNAMGWYRQAPGKEREFVAGITRRGTSTNYADSVKGRFTISRDNAKNSVYLQMNSLKPEVTAVYYCNARYYLYWGQGTQVTVSS”, for which the “polyreactivity (PSR sort gate)” value is “low polyreactivity”. Take “QFQLVESGGGLVQARGRLRLSCAASGSIFSYNAMGWYRQAPGKERELVARISSSGSTNYADSVKGRFTISRDNAKNTVYIQMNSLKPEDTAVYYCNKDPYWPSWTRRRREYYYWGQGTQVTVSS”: the “polyreactivity (PSR sort gate)” value is reported as “high polyreactivity”. As to “QFQLVESGGGLVQARGSLRLSCAASGSIFDLNAMGWYRPAPGKERELVAAISSGGGTYYADSVKGRFTISRDNAKNTVYFQMYSLKPDDSAVYYCAAGKSSPRRIFEYWGQGTEVTVSS”, the “polyreactivity (PSR sort gate)” value was “high polyreactivity”. In the case of “QFQLVESGGGLVQARGSLRLSCAASGSTFRYYGMGWYRQTPGKERELVAAISSSGGSTYYADSVKGRFTISRDNAKITVYLKMNSLKPEDNAVYYCAAGSRFVSSRLYYWGQGTQVTVSS” it was “high polyreactivity”. With “QFQLVESGGGLYQAGGSLRLSCASSGITLYFYAMGWYRQAPGKVRELVAAISRGGRTYYADSVKGRFTISRDNAKNTVYLQMNSLKPEDTAVYYCAARYTSEYSAFDYWGQGTQVTVSS” the entry was “low polyreactivity”; with “QFQLVESGGVLDQAGCSLRLSCAASGYTFYANAMGWYRQAPGKEREFVASIPWSGGSTYYADSVKGRFTISRDNAKNTVYLQMNSLKPEDTAVYYCAAESWFKYDYWGQGTQVTVSS”, “low polyreactivity”. As for “QFQLVESGVGLVQAGGSLRFSCAASGRIFMPNAMGWYRQSPGKEREFVASISWSGGSTYYADSVKGRFTISRDNAKTTDYLQMNSLKPEDTAVYYCNARYGKRYYYWGQGTQVTVSS”, the “polyreactivity (PSR sort gate)” value was “low polyreactivity”. In the case of “QFQLVESVRGLVQAGVSLRLSCAASGSTFNFYAMGLYRQPPGKERELVAAIRQSSGRTYYADSVKGRFTISRDNGNYTVYLQMNSLKPEDTAVYYCAAVRYNFNFKMYYWGQGTQVTVSS”, the “polyreactivity (PSR sort gate)” value is “high polyreactivity”. Regarding “QFQLVESWGGLVQAGGSLRLSCAASGTMGWYRQAPVKERELVAAISQSGGSTYYADSVKGRFTISRDNAKNTVYLQMNSLKPEDTAVYYCAVDPLYGDPRRDYWGQGTQVTVSS”, the “polyreactivity (PSR sort gate)” value is listed as “low polyreactivity”.

Consider “QFQLVETGGGLDQAGGSLRLSCAASGTTFGVYAMGWYRQAPGKERELVAVITSRGGSTYYADSVKGRFTISRDNAKNTVYLQMNSLIPEDTAVYYCNVDSAYRRPPYDYWGQGTQVTVSS”, for which the “polyreactivity (PSR sort gate)” value is “high polyreactivity”. With “QGQHVESGGGLVQAGGSLRLSCAASGTFVYAMGWYRQAPGKERELVAAISYSGGSTYYADSVKGRFTISRDNAKNTVYLQMNSLKPEDTAVFYCNVLGWYYTTTKYDYWGQGTQVTVSS” the entry was “high polyreactivity”.
